Consider 1 protein from US20100068807.

The target in this series is GST fusion IRF7 (GST fused to amino acids 422-457 of mouse IRF-7, from pGST-IRF7) [GST: P08515].

B1: 6myc-mIKKα (wild-type mouse IKKα with 6 myc tags, expressed from pSRα-6myc-mIKKα in 293T cells) (protein)
chain: MERPPGLRPGAGGPWEMRERLGTGGFGNVSLYQHRELDLKIAIKSCRLELSSKNRERWCHEIQIMKKLDHANVVKACDVPEELNFLINDVPLLAMEYCSGGDLRKLLNKPENCCGLKESQILSLLSDIGSGIRYLHENKIIHRDLKPENIVLQDVGGKTIHKIIDLGYAKDVDQGSLCTSFVGTLQYLAPELFENKPYTATVDYWSFGTMVFECIAGYRPFLHHLQPFTWHEKIKKKDPKCIFACEEMTGEVRFSSHLPQPNSLCSLIVEPMESWLQLMLNWDPQQRGGPIDLTLKQPRCFALMDHILNLKIVHILNMTSAKIISFLLPCDESLHSLQSRIERETGINTGSQELLSETGISLDPRKPASQCVLDGVRGCDSYMVYLFDKSKTVYEGPFASRSLSDCVNYIVQDSKIQLPIIQLRKVWAEAVHYVSGLKEDYSRLFQGQRAAMLSLLRYNANLTKMKNTLISASQQLKAKLEFFRKSIQLDLERYSEQMTYGISSEKMLKAWKEMEEKAIHYSEVGVIGYLEDQIMSLHTEIMELQKSPYGRRQGDLMESLEQRAIDLYKQLKHRPPDHLYSDSTEMVKIIVHTVQSQDRVLKELFGHLSKLLGCKQKIIDLLPKVEVALSNIKEADNTVMFMQGKRQKEIWHLLKIACTQSSARSLVGSSLEGTVTPPVSAWLPPTLADREHPLTCVVTPQDGETLAQMIEENLNCLGHLSTIIREANEDQSSSLMSLDWSWLAE
On to B1, for which the “phosphorylation of substrate (in vitro kinase assay with [γ-32P]ATP, SDS-PAGE and autoradiography)” value is listed as “IRF7 was phosphorylated by IKKα”.
